Our source for the IC50 for inhibition of migration of L1.2/CCR3 transfectants to 1 nM CCL11 values is publication PMC3741163.

For this assay, the target named is CCR3 (UniProt P51677).
Sequence of CCR3 (P51677 whole entry): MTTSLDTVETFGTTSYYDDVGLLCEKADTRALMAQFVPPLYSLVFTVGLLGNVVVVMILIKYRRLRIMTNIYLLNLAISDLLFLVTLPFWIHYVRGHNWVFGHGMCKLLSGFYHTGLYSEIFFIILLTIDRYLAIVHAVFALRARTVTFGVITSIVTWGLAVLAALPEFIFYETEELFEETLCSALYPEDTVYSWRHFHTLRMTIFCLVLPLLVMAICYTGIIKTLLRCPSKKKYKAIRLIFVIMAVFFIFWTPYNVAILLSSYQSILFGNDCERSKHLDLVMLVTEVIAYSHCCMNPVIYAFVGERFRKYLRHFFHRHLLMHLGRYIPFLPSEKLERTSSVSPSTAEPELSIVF

B1: CCL18-6His (ligand)
chain: AQVGTNKELCCLVYTSWQIPQKFIVDYSETSPQCPKPGVILLTKRGRQICADPNKKWVQKYISDLKLNA
Take B1: the IC50 for inhibition of migration of L1.2/CCR3 transfectants to 1 nM CCL11 is 168 nM.
